B1: Hairpin Ribozyme (parent)
chain: GUCCUCUUUCACGUGCGCGUGAAAGAGAGAAGUGAACCAGAGAAACACACGUUGUGGUAUAUUACCUGGUA

In the series the parent is B1. The series can be described thus: self-cleavage, relative activity (ratio to wild type); higher = more cleavage; co-transcriptional.
With GACCUCUUUCACGUGCGCGUGAAAGAGAGAAGUGAACCAGAGAAACACACGUUGUGGUAUAUUACCUGGCA, the self-cleavage worked out at 0.288.
GACCUCUUUCACGUGCGCGUGAAAGAGAGAAGUGAACCAGAGAAACACAUGUUGUGGUAUAUUACCUGGUA: the self-cleavage came out at 0.113.
In the case of GACCUCUUUCACGUGCGCGUGAAAGAGAGAAGUGAACCAGAGAAACGCACGUUGUGGUAUAUUACCUGGUA it was 0.102.
Consider GACCUCUUUCACGUGCGCGUGAAAGAGAGAAGUGAACCAGAGAAACCCACGUUGUGGUAUAUUACCUGGUA, for which the self-cleavage was determined as 0.183.
The same measure for GACCUCUUUCACGUGCGCGUGAAAGAGAGAAGUGAACCAGAGAAACACACGUUGUGGAAUAUUACCUGGUA: 0.164.
As for GACCUCUUUCACGUGCGCGUGAAAGAGAGAAGUGAACCAGAGAAACACACGUUGUGGUAUAUUAUCUGGUA, the self-cleavage was found to be 0.128.
The same measure for GACCUCUUUCACGUGCGCGUGAAAGAGAGAAUUGAACCAGAGAAACACACGUUGUGGUAUAUUACCUGGUA: 0.155.
In the case of GACCUCAUUCACGUGCGCGUGAAAGAGAGAAGUGAACCAGAGAAACACACGUUGUGGUAUAUUACCUGGUA it was 0.331.
With GCCCUCUUUCACGUGCGCGUGAAAGAGAGAAGUGCACCAGAGAAACACACGUUGUGGUAUAUUACCUGGUA, the self-cleavage is 0.159.
In the case of GACCUCUUUCAUGUGCGCGUGAAAGAGAGAAGUGAACCAGAGAAACACACGUUGUGGUAUAUUACCUGGUA it was 0.166; in that of GACCUCUUUCAAGUGCGCGUGAAAGAGAGAAGUGAACCAGAGAAACACACGUUGUGGUAUAUUACCUGGUA, 0.171.
The same measure for GACCUCUUUCAGGUGCGCGUGAAAGAGAGAAGUGAACCAGAGAAACACACGUUGUGGUAUAUUACCUGGUA: 0.175; for GACCUCUUUCACGUGCGCGUGAAAGAGAGAAGUGAACCAGAGAAACACACGUUGUGGUAUAUUUCCUGGUA: 0.0942.
Take GACCUCUUUCACGUGCGCGUGAAAGAGAGAAGUGAACCAGAGAAACACACGUUGUGGUAUAUUACCUGGUC: the self-cleavage turned out to be 0.656.
The same measure for GACCUCUUUCACGUGCGCGUGAAAGAGAGAAGUGAACCAGAGAAACACACGUUGUGGUAUAUUACCUGGUU: 0.186.
Turning to GACCUCUUUCACGUGCGCGUGAAAGAGAGAAGUGAACCAGAGAAACACACGUGGUGGUAUAUUACCUGGUA, the self-cleavage turned out to be 0.134.
On to GCCCUCUUUCACGUGCGCGUGAAAGAGAGAAGUGAACCAGAGAAACACGCGUUGUGGUAUAUUACCUGGUA, for which the self-cleavage amounted to 0.0598.
In the case of GCCCUCUUUCACGUGCGCGUGAAAGAGAGAAGUGAACCAGAGAAACACCCGUUGUGGUAUAUUACCUGGUA it was 0.189; in that of GACCUCUUUCACGUGCGCGUGAAAGAGAGAAGUGAACCAGAGAAACACCCGUUGUGGUAUAUUACCUGGUA, 0.149; in that of GCCCUCUUUCACGUGCGCGUGAAAGAGAGAAGUGAACCGGAGAAACACACGUUGUGGUAUAUUACCUGGUA, 0.0933.
As for GCCCUCUUUCACGUGCGCGUGAAAGAGAGAAGUGAACCCGAGAAACACACGUUGUGGUAUAUUACCUGGUA, the self-cleavage was 0.0668.
The same measure for GCCCUCUUUCCCGUGCGCGUGAAAGAGAGAAGUGAACCAGAGAAACACACGUUGUGGUAUAUUACCUGGUA: 0.229.
The same measure for GACCUCUUUCACGUGCUCGUGAAAGAGAGAAGUGAACCAGAGAAACACACGUUGUGGUAUAUUACCUGGUA: 0.22.
Take GCCCUCUUUCACGUGCGCGUGAAAGAGAGAAGUGAACCAGAGAAACACACGUUGUGGUCUAUUACCUGGUA: the self-cleavage came to 0.0741.
For the variant GCCCUCUUUCACGUGCGCGUGAAAGAGAGAAGUGAACCAGAGAAACACACGUUGUGGUGUAUUACCUGGUA, the self-cleavage amounted to 0.173.
In the case of GACCUCUUUCACGUGCGAGUGAAAGAGAGAAGUGAACCAGAGAAACACACGUUGUGGUAUAUUACCUGGUA it was 0.23; in that of GACCUCUUUCACGUGCGCGUGAAAGAGAGAAGUGAACCAGAGAAACACACGUUGUGGUAUAUUACCUGCUA, 0.111.
As to GACCUCUUUCACGUGCGCGUGAAAGAGAGAAGUGAACCAGAGAAGCACACGUUGUGGUAUAUUACCUGGUA, the self-cleavage came out at 0.0349.
Regarding GACCUCUUUCACGUUCGCGUGAAAGAGAGAAGUGAACCAGAGAAACACACGUUGUGGUAUAUUACCUGGUA, the self-cleavage worked out at 0.289.
The same measure for GACCUCUUUCACGUGCGCGUGAAAGAGAGAAGUGAACCAGAGAAACACACGUUGUGGUAUAUUACAUGGUA: 0.124; for GACCUCUUUCACGUGCGCGUGAAAGAGAGAAGUGAACCAGAGAAACACACGUUGUGCUAUAUUACCUGGUA: 0.0768.
As for GAUCUCUUUCACGUGCGCGUGAAAGAGAGAAGUGAACCAGAGAAACACACGUUGUGGUAUAUUACCUGGUA, the self-cleavage turned out to be 0.288.
In the case of GACCUCUUUCACGUGCGCGUGAAAGAGAGAAGUGAACCAGAGAAAUACACGUUGUGGUAUAUUACCUGGUA, the self-cleavage was 0.0639.
The same measure for GACCUCUUUCACGUGCGCGUGAAAGAGAGAAGUGAACCAGAGAAACACACGUUGUGGUAUAUAACCUGGUA: 0.0695.
For GACCUCUUUCACGUGCGCGUGAAAGAGAGAAGUGAACCAGAGAAACACACGUUGUGGUAUAUCACCUGGUA, the self-cleavage was 0.0787.
The same measure for GACCUCUUUCACGUGCGCGUGAAAGAGAGAAGUUAACCAGAGAAACACACGUUGUGGUAUAUUACCUGGUA: 0.665; for GCCCUCUUUCACGUGCGCGUGAAAGAGCGAAGUGAACCAGAGAAACACACGUUGUGGUAUAUUACCUGGUA: 0.117; for GCCCUCUUUCACGUGCGCGUGAAAGAGGGAAGUGAACCAGAGAAACACACGUUGUGGUAUAUUACCUGGUA: 0.

These data come from the RNAGym collection of RNA variant scans (doi:10.7554/elife.80360).
